The Km is the concentration of substrate that gives half-maximal velocity. Usually kcat stands for the maximal rate divided by the concentration of active sites. Broadly, the kcat/Km is the second-order rate constant that governs catalysis at low substrate concentration.

We go through 2 molecules from article PMC9814548, “Chemoenzymatic synthesis of 3-ethyl-2,5-dimethylpyrazine by L-threonine 3-dehydrogenase and 2-amino-3-ketobutyrate CoA ligase/L-threonine aldolase” (Communications Chemistry, 2021).

Series [1] concerns the target T1, CnKBL (Cupriavidus necator, UniProt Q0K313).
T1 construct: gene kbl; gene cloned in pET-28a (NcoI/XhoI), E. coli BL21(DE3), Ni-Sepharose and gel filtration; dimer; PLP on K246
T1 sequence (Q0K313 1-399): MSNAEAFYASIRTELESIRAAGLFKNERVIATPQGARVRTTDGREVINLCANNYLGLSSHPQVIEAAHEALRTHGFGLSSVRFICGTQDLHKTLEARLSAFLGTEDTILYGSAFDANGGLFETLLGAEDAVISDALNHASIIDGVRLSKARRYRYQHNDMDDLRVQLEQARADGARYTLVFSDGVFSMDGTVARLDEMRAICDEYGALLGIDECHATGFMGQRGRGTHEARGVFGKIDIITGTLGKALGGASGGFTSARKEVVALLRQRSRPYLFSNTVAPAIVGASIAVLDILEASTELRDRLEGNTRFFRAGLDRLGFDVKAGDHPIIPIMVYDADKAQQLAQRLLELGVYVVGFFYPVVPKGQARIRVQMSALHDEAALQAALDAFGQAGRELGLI
Briefly: X-ray crystal structure, […] Å. Format: binding. The settings on record: covalent, Schiff base with K246.

Substrate in series [2]: CC(=O)SCCNC(=O)CCNC(=O)[C@H](O)C(C)(C)COP(=O)(O)OP(=O)(O)OC[C@H]1O[C@@H](n2cnc3c(N)ncnc32)[C@H](O)[C@@H]1OP(=O)(O)O
Briefly: purified protein. In kind it is biochemical, Cupriavidus necator. The settings on record: 100 mM Gly, 50 mM potassium phosphate pH 8.0, 30 °C.

Substrate in series [3]: C[C@H](O)[C@H](N)C(=O)O
The experiment in a line: purified protein. Format: biochemical, Cupriavidus necator. The settings on record: 50 mM potassium phosphate pH 8.0, 30 °C, no CoA.

Substrate in series [4]: NCC(=O)O
The experiment in a line: purified protein. Format: biochemical, Cupriavidus necator. The conditions noted are these: 1 mM acetyl-CoA, 50 mM potassium phosphate pH 8.0, 30 °C.

Substrate in series [5]: C[C@@H](O)[C@H](N)C(=O)O
The experiment in a line: purified protein. Format: biochemical, Cupriavidus necator. The settings on record: 50 mM potassium phosphate pH 8.0, 30 °C, no CoA.

Substrate in series [6]: CCC(O)C(N)C(=O)O
Briefly: purified protein. Format: biochemical, Cupriavidus necator. The settings on record: 50 mM potassium phosphate pH 8.0, 30 °C, no CoA.

For the molecule `Cc1ncc(COP(=O)(O)O)c(C=O)c1O` [PLP], in series [1], the “X-ray crystal structure, 1.8 Å” value is listed as “only PLP is coordinated at the site by forming a Schiff base with the side chain”.

B1: CnKBL (Cupriavidus necator H16) (protein)
chain: MSNAEAFYASIRTELESIRAAGLFKNERVIATPQGARVRTTDGREVINLCANNYLGLSSHPQVIEAAHEALRTHGFGLSSVRFICGTQDLHKTLEARLSAFLGTEDTILYGSAFDANGGLFETLLGAEDAVISDALNHASIIDGVRLSKARRYRYQHNDMDDLRVQLEQARADGARYTLVFSDGVFSMDGTVARLDEMRAICDEYGALLGIDECHATGFMGQRGRGTHEARGVFGKIDIITGTLGKALGGASGGFTSARKEVVALLRQRSRPYLFSNTVAPAIVGASIAVLDILEASTELRDRLEGNTRFFRAGLDRLGFDVKAGDHPIIPIMVYDADKAQQLAQRLLELGVYVVGFFYPVVPKGQARIRVQMSALHDEAALQAALDAFGQAGRELGLI
notes: gene cloned in pET-28a (NcoI/XhoI), E. coli BL21(DE3), Ni-Sepharose and gel filtration; dimer; PLP on K246
Turning to B1, the Michaelis-Menten constant (Km) is 242.7 ± 10.4 µM in series [2]; 420 ± 86 µM in series [3]; 13900 ± 520 µM in series [4]; 1240 ± 110 µM in series [5]; 200 ± 56 µM in series [6]. In addition, the kcat turned out to be 3.43 ± 0.036 s⁻¹ in series [2]; 0.000778 ± 4.33e-05 s⁻¹ in series [3]; 3.43 ± 0.036 s⁻¹ in series [4]; 0.00283 ± 0.0065 s⁻¹ in series [5]; 0.00123 ± 7.17e-05 s⁻¹ in series [6]. Besides, the catalytic efficiency (kcat/Km) in series [3] worked out at 1.83 M⁻¹ s⁻¹; in series [5], 2.33 M⁻¹ s⁻¹; in series [6], 6.17 M⁻¹ s⁻¹.
